Source: US20200199216A1 (KINDRED BIOSCIENCES, published 2020)

T1: canine IL4 (biotinylated) (canine, UniProt O77762 25-132, biotinylated)
T1 construct: Used only to capture the IL4R/IL13R-Fc fusions on streptavidin sensor tips; also called Biotinylated canine IL4
T1 sequence (looked up): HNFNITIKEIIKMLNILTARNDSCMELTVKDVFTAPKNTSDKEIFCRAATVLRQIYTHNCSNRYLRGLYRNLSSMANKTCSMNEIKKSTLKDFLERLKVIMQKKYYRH

T2: canine IL17F-polyHis (canine, biotinylated in the biosensor assay)
T2 construct: also called IL17F homodimer; not shown: poly-His tag on the C-terminal
T2 chain: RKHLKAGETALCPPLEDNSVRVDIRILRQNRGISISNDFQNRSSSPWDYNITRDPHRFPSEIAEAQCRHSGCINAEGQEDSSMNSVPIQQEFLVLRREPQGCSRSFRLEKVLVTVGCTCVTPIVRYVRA

T3: canine IL17A (as used at 1 nM in the H1080 cell assay) (canine)
T3 chain: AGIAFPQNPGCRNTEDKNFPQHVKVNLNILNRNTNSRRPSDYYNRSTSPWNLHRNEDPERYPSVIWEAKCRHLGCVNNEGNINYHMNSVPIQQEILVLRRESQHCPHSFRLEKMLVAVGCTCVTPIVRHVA

T4: canine IL17A-polyHis (canine, biotinylated (EZ-Link NHS-LC-biotin) in the biosensor assays)
T4 construct: also called biotinylated canine IL17A-polyHis; not shown: poly-His tag on the C-terminal
T4 chain: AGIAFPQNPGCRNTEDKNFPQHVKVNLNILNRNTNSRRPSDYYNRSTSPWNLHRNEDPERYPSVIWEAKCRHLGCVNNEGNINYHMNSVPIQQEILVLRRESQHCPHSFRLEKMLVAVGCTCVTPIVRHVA

B1: IL4R/IL13R-canine IgG-B wild-type (Fc fusion)
chain: TETQPPVTNLSVSVENLCTVIWTWDPPEGASPNCTLRYFSHFDNKQDKKIAPETHRSKEVPLNERICLQVGSQCSTNESDNPSILVEKCTPPPEGDPESAVTELQCVWHNLSYMKCTWLPGRNTSPDTNYTLYYWHSSLGKILQCEDIYREGQHIGCSFALTNLKDSSFEQHSVQIVVKDNAGKIRPSFNIVPLTSHVKPDPPHIKRLFFQNGNLYVQWKNPQNFYSRCLSYQVEVNNSQTETNDIFYVEEAKCQNSEFEGNLEGTICFMVPGVLPDTLNTVRIRVRTNKLCYEDDKLWSNWSQAMSIGENTDPTGGGSGSGSVKVLHEPSCFSDYISTSVCQWKMDHPTNCSAELRLSYQLDFMGSENHTCVPENREDSVCVCSMPIDDAVEADVYQLDLWAGQQLLWSGSFQPSKHVKPRTPGNLTVHPNISHTWLLMWTNPYPTENHLHSELTYMVNVSNDNDPEDFKVYNVTYMGPTLRLAASTLKSGASYSARVRAWAQTYNSTWSDWSPSTTWLNYYEPKRENGRVPRPPDCPKCPAPEMLGGPSVFIFPPKPKDTLLIARTPEVTCVVVDLDPEDPEVQISWFVDGKQMQTAKTQPREEQFNGTYRVVSVLPIGHQDWLKGKQFTCKVNNKALPSPIERTISKARGQAHQPSVYVLPPSREELSKNTVSLTCLIKDFFPPDIDVEWQSNGQQEPESKYRTTPPQLDEDGSYFLYSKLSVDKSRWQRGDTFICAVMHEALHNHYTQESLSHSPGK
B2: IL4R/IL13R-canine IgG-B variant 1 (C1q binding mutant) (Fc fusion)
chain: TETQPPVTNLSVSVENLCTVIWTWDPPEGASPNCTLRYFSHFDNKQDKKIAPETHRSKEVPLNERICLQVGSQCSTNESDNPSILVEKCTPPPEGDPESAVTELQCVWHNLSYMKCTWLPGRNTSPDTNYTLYYWHSSLGKILQCEDIYREGQHIGCSFALTNLKDSSFEQHSVQIVVKDNAGKIRPSFNIVPLTSHVKPDPPHIKRLFFQNGNLYVQWKNPQNFYSRCLSYQVEVNNSQTETNDIFYVEEAKCQNSEFEGNLEGTICFMVPGVLPDTLNTVRIRVRTNKLCYEDDKLWSNWSQAMSIGENTDPTGGGSGSGSVKVLHEPSCFSDYISTSVCQWKMDHPTNCSAELRLSYQLDFMGSENHTCVPENREDSVCVCSMPIDDAVEADVYQLDLWAGQQLLWSGSFQPSKHVKPRTPGNLTVHPNISHTWLLMWTNPYPTENHLHSELTYMVNVSNDNDPEDFKVYNVTYMGPTLRLAASTLKSGASYSARVRAWAQTYNSTWSDWSPSTTWLNYYEPKRENGRVPRPPDCPKCPAPEMLGGPSVFIFPPKPKDTLLIARTPEVTCVVVDLDPEDPEVQISWFVDGKQMQTAKTQPREEQFNGTYRVVSVLPIGHQDWLKGKQFTCRVNNKALPSPIERTISKARGQAHQPSVYVLPPSREELSKNTVSLTCLIKDFFPPDIDVEWQSNGQQEPESKYRTTPPQLDEDGSYFLYSKLSVDKSRWQRGDTFICAVMHEALHNHYTQESLSHSPGK
B3: mouse monoclonal antibody Clone A (antibody, IgG1, V domains shown)
VH: QVQLKESGPGLVAPSQSLSITCTISGFSLTSNGVHWVRQSPGKDLEWLVVIWSDGTTTYNSDFKSRLSISKDNSKSQVFLKMNSLQTDDTAMYYCARHYDWGYYYAMDYWGQGTSVTVSS
VL: DVVMTQTPLSLPVSLGDQASISCRSSQSLVHSNGNTYLHWYLQRPGQSPNLLIYKVSNRFSGVPDRFSGSGSGTDFTLKISRVEAEDLGVYFCSQSTHVPFTFGSGTKLEIK
notes: Hybridoma antibody; also called antibody A
B4: mouse monoclonal antibody Clone E (antibody, mouse IgG1, V domains shown)
VH: QVQLKESGPGLVAPSQSLSITCTISGFSLTSNGVHWVRQPPGKGLEWLVVIWSDGTTTYNSALKSRLSISKDNSKSQVFLKMNSLQTDDTAMYYCARHYDRGYYYAMDYWGQGTSVTVSS
VL: DVVMTQTPLSLPVSLGDQASISCRSSQSLVHSNGNTYFHWYLQKPGQSPKLLIYKVSNRFSGVPDRFSGSGSGTDFTLKISRVEAEDLGVYFCSQSTHAPFTFGSGTKLEIK
notes: Hybridoma antibody; also called antibody E
B5: caninized Clone C antibody (caninized Clone C VH with canine IgG-B, caninized Clone C VL with canine kappa constant region) (antibody, V domains shown)
VH: EVQLVESGGGLVKPGGSLRLSCAASGFTFSSYGMSWVRQAPGKRLELVAIINSNGGSTYYPDSVKGRFTFSLDTSKNTLYLQMNSLRAEDTAMYYCVRCHYDYERVFDYWGQGTLVTVSS
VL: DIQMTQSPASVSGSLGDKVSITCKANDHINNWLAWYQQLPGNAPRLLISGSTSLESGVPDRFSGSKSGSSFTLTISGLQPEDFATYYCQQYWSTPFTFGSGTKVEIKR
notes: expressed in CHO-S cells, purified on Protein A

Experiments:
[1] = biological target: T1, canine IL4 (biotinylated); assay: BLI capture step; biotinylated canine IL4 on streptavidin sensor tips, fusion at 25 µg/mL
Method: (§1) The determine the binding affinity of C1q to canine IgG-B Fc variant 1, a biosensor binding analysis was performed. In this assay, the affinity of C1q to a fusion protein of a canine IL4 receptor ECD and IL13 receptor ECD (IL4R/IL13R) and canine IgG-B Fc wild-type (IL4R/IL13R-canine IgG-B, SEQ ID NO: 95) or to canine IgG-B Fc variant 1 (IL4R/IL13R-canine IgG-B variant 1, SEQ ID NO: 96) was tested. Briefly, canine IL4 was biotinylated. Biotinylated canine IL4 was captured on streptavidin sensor tips. Either IL4R/IL13R-canine IgG-B wild-type (25 ug/mL) or IL4R/IL13R-canine IgG-B variant 1 (25 μg/mL) were complexed to the IL4-bound biosensors. Subsequently, the complex was used to bind human C1q at 250 μg/mL (Catalog No. 204876-1MG; Sigma Aldrich). Then, the ability of human C1q to bind to either complex was measured. Reduced binding between human C1q and IL4R/IL13R-canine IgG-B variant 1 was observed when compared to IL4R/IL13R-canine IgG-B wild-type.

[2] = biological target: T5, human C1q (Catalog No. 204876-1MG; Sigma Aldrich) (human, UniProt P02745 23-245; P02746 28-253; P02747 29-245); assay: BLI; Fc fusion (25 µg/mL) captured on IL4-bound streptavidin sensors, human C1q at 250 µg/mL
T5 construct: Bought protein
T5 sequence (P02745 23-245 limits assumed, chain 1 of 3): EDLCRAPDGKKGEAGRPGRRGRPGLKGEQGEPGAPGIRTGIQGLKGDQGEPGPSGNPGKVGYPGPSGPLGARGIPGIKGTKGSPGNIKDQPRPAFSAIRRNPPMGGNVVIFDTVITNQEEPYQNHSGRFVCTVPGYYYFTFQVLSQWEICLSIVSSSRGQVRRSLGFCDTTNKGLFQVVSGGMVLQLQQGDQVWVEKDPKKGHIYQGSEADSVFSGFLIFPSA
T5 sequence (P02746 28-253 limits assumed, chain 2 of 3): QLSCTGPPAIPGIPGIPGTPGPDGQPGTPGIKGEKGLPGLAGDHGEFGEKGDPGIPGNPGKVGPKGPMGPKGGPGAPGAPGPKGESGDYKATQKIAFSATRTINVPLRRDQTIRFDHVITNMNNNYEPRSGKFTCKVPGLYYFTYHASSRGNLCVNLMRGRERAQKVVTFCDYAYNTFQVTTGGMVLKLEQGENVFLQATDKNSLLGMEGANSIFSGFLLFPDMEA
T5 sequence (P02747 29-245 limits assumed, chain 3 of 3): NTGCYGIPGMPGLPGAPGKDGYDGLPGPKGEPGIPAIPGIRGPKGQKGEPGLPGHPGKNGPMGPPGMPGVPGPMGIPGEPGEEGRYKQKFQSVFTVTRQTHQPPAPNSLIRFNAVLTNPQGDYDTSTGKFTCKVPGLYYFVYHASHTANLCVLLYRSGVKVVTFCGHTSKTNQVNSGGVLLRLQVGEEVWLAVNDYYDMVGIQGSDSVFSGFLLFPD
Method: as §1

canine IL17F-polyHis [3] = biological target: T2, canine IL17F-polyHis; assay: Western blot: SDS-PAGE, PVDF, goat anti-mouse IgG-HRP
Method: Canine IL17A-hFc, feline IL17A-polyHis, equine IL17A-polyHis, and canine IL17F-polyHis (0.6 μg) were each separated by SDS-PAGE and the proteins transferred to PVDF membranes. The blots were probed using Clone A, C, D, or E antibody followed by goat anti-mouse IgG-HRP. In this Western analysis, Clone A, C, and E antibodies immunoreacted to canine and equine IL17A, but not to feline IL17A or canine IL17F. Clone D antibody immunoreacted to canine, feline, and equine IL17A, but not to canine IL17F.

[4] = biological target: T3, canine IL17A (as used at 1 nM in the …); assay: cell-based or functional assay
[5] = biological target: T3, canine IL17A (as used at 1 nM in the …); assay: cell-based or functional assay
canine IL17F-polyHis [6] = biological target: T2, canine IL17F-polyHis; assay: BLI (Octet); biotinylated canine IL17F-polyHis on streptavidin sensors, antibody 0-124 nM, 1:1 model
Method: The binding analysis was performed using a biosensor Octet as follows. Briefly, canine IL17F-polyHis was biotinylated using EZ-Link NHS-LC-biotin (Catalog No. 21336, Thermo Scientific). Free, unreacted biotin was removed from biotinylated IL17F-polyHis by dialysis. Biotinylated canine IL17F was captured on streptavidin sensor tips (Catalog No. 18-509, ForteBio). The association of different concentrations (0 nM, 2 nM, 10.1 nM, 21.3 nM, 43.3 nM, 86.7 nM, 124 nM) of the caninized Clone C antibody and canine IL17F-polyHis was monitored for ninety seconds. Dissociation was monitored for 600 seconds. A buffer only blank curve was subtracted to correct for any drift. The data were fit to a 1:1 binding model using ForteBio™ data analysis software to determine the kₒₙ, koff, and the Kd. The buffer for dilutions and all binding steps was: 20 mM phosphate, 150 mM NaCl, pH 7.2.

canine IL17A-polyHis = biological target: T4, canine IL17A-polyHis; assay: BLI (Octet); biotinylated canine IL17A-polyHis on streptavidin sensors, antibody 0-220 nM, 1:1 model
Method: The binding analysis was performed using a Biosensor Octet as follows. Briefly, canine IL17A-polyHis, which was expressed and purified from CHO-S cells, was biotinylated using EZ-Link NHS-LC-biotin (Catalog No. 21336, Thermo Scientific). Free, unreacted biotin was removed from biotinylated IL17A by dialysis. Biotinylated canine IL17A was captured on streptavidin sensor tips (Catalog No. 18-509, ForteBio). The association of different concentrations (0 nM, 18.33 nM, 45.87 nM, 110 nM, 220 nM) of hybridoma Clone C or caninized Clone C antibody to canine IL17A was monitored for 90 seconds. Dissociation was monitored for 600 seconds. A buffer only blank curve was subtracted to correct for any drift. The data were fit to a 1:1 binding model using ForteBio™ data analysis software to determine the kₒₙ, koff, and the Kd. The buffer for dilutions and all binding steps was: 20 mM phosphate, 150 mM NaCl, pH 7.2.

| Binder | binding result [1] | binding result [2] | binding result (canine IL17F-polyHis [3]) | EC50 (ng/mL), H1080 Cell Functional Assay (IL6 secretion) [4] [ng/mL] | further results |
| --- | --- | --- | --- | --- | --- |
| B1 | binds | binds |  |  |  |
| B2 | binds | binds |  |  |  |
| B3 |  |  | no binding (tested: 0.6 µg of target per lane) | 13 |  |
| B4 |  |  | no binding (tested: 0.6 µg of target per lane) | 40 |  |
| B5 |  |  |  |  | IC50, H1080 cell-based canine IL17A neutralization assay (IL6 secretion) [5]: 0.41 nM; Kd (canine IL17F-polyHis [6]): 4.1 nM; Kd (canine IL17A-polyHis): 1.4 nM |
